{
  "source": "patent US20260274928A1",
  "about": "(VIR BIOTECHNOLOGY, published 2026)",
  "binders": {"B1": {"name": "S3L17 (antibody, V domains shown)", "VH": "EVQLVESGGGLVQPGGSLRLSCAASEIIVSSNYMNWVRQAPGKGLEWVSVIYAGGSTFYADSVRGRFTISRDNSKNTLYLQMNSLRPDDTAIYYCARDLGPWGMDVWGQGTTVTVSS", "VL": "DIQMTQSPSSLSASVGDRVAITCRASHGINNDLAWYQQKPGKVPKLLIYAASTLQSGVPSRFSGSGSGTDFTLTISSLQPEDVATYYCQHYSSDPRFTFGPGTKVDIK"}, "B2": {"name": "S3I2 (antibody, V domains shown)", "VH": "EVQLVETGGGLIQPGGSLTLSCAASGLVVSYNYMTWVRQAPGKGLEWLSVIYAGGSTFYADSVKGRFTVSRDNSNNTLYLQMNNLRAEDTAVYFCARWGQVRFTSEEAYYKYGLDVWGQGTTVTVSS", "VL": "DIQLTQSPSFLSASVGDRVTITCRASQGISNYLAWYQQRPGKAPKLLIFTASTLQSGVSSRFSGSGSGTEFTLTISSLQPEDLATYYCQQLNSNLQGTFGQGTRVEIK"}, "B3": {"name": "S2K146 Fab (Fab, V domains shown)", "VH": "QVQLVESGGVVVQPGGSLRLSCAASGFTFHDHTMHWVRQAPGKGLEWVSLITWNGGTIHYSDSVKGRFTISRDNSKNSLYLQMNSLRTEDTALYYCAKDLGRGGWYLPSDAWGQGTLVTVSS", "VL": "not shown"}, "B4": {"name": "S2V29-v37.2 (antibody, V domains shown)", "VH": "EVQLVESGGSVVQPGRALRLSCAASGITFSSFGMYWVRQAPGKGLEWLGYIAYDGSDTYYADSVKGRFTISRDNSKNTLYLQMNSLRIEDTAVYYCAKDYYPLLSYYYGLDVWGQGTTVTVSS", "VL": "QSVLTQPRSVSGSPGQSVTISCTGTSSDVGAYNYVSWYQQHPGKAPKFMIYDVDQRPSGVPDRFSGSKSGNTASLIISGLQAEDEADYYCSSYAGSYIWVFGGGTQLTVL"}, "B5": {"name": "S2V29-v1.2 (antibody, V domains shown)", "VH": "B4 VH with Y50V, D57N", "VL": "B4 VL"}, "B6": {"name": "S2V29-v1.1 (antibody, V domains shown)", "VH": "B4 VH with Y50V, D57N", "VL": "B4 VL with S91C"}},
  "key": {"[1]": {"target": "SARS-CoV-2 mouse/rabbit Fc-tagged RBD (SARS-CoV-2, UniProt P0DTC2 319-541)"}, "[2]": {"target": "T1, SARS-CoV-2 Wuhan-Hu-1 RBD (SARS-CoV-2 Wuhan-Hu-1, UniProt P0DTC2 328-531)", "T1 construct": "range 328-531", "assay": "RBD binding affinity (SPR, see Example 5)"}, "[3]": {"target": "T1, SARS-CoV-2 Wuhan-Hu-1 RBD", "assay": "BLI, Fab on immobilized Wuhan-Hu-1 RBD (FIG. 25)"}, "[4]": {"target": "T2, SARS-CoV S glycoprotein (SARS-CoV, UniProt P59594 14-1255)", "assay": "cell-based or functional assay"}, "[5]": {"target": "T2, SARS-CoV S glycoprotein", "assay": "cell-based or functional assay", "remark": "listed apart in the source"}, "[6]": {"target": "T2, SARS-CoV S glycoprotein", "assay": "cell-based or functional assay", "remark": "listed apart in the source"}, "[7]": {"target": "SARS-CoV-2 CH.1.1 S glycoprotein (SARS-CoV-2 CH.1.1)", "assay": "cell-based or functional assay"}},
  "note": "Numbering of substitutions follows the chain as printed. Read-outs that look alike come from different tables or passages of the source.",
  "data": [
    {"binder": "B1", "values": [
      {"measurement": "IC50 (read off the curve)", "setting": "[1]", "result": "~0.02", "unit": "µg/mL"},
      {"measurement": "Kd", "setting": "[2]", "result": 0.07, "unit": "nM"}
    ]},
    {"binder": "B2", "values": [
      {"measurement": "IC50 (read off the curve)", "setting": "[1]", "result": "~0.03", "unit": "µg/mL"}
    ]},
    {"binder": "B3", "values": [
      {"measurement": "binding result", "setting": "[3]", "result": "binds"}
    ]},
    {"binder": "B4", "values": [
      {"measurement": "fold improvement in neutralization", "setting": "[4]", "result": 100, "unit": "fold"},
      {"measurement": "FC IC50 par/IC50 Var", "setting": "[5]", "result": 21.7, "unit": "fold"},
      {"measurement": "IC50", "setting": "[5]", "result": 0.0077, "unit": "µg/mL"},
      {"measurement": "FC vs v1.2", "setting": "[6]", "result": 116, "unit": "fold"},
      {"measurement": "IC50", "setting": "[6]", "result": 6, "unit": "ng·mL"},
      {"measurement": "FC vs S2V29-v1.2", "setting": "[7]", "result": 1.3, "unit": "fold"},
      {"measurement": "IC50", "setting": "[7]", "result": 0.0089, "unit": "µg/mL"},
      {"measurement": "Kd", "setting": "[2]", "result": 0.16, "unit": "nM"}
    ]},
    {"binder": "B5", "values": [
      {"measurement": "IC50", "setting": "[6]", "result": 689, "unit": "ng·mL"},
      {"measurement": "IC50", "setting": "[7]", "result": 0.0112, "unit": "µg/mL"},
      {"measurement": "Kd", "setting": "[2]", "result": "< 0.02", "unit": "nM"}
    ]},
    {"binder": "B6", "values": [
      {"measurement": "IC50 (read off the curve)", "setting": "[1]", "result": "~0.02", "unit": "µg/mL"}
    ]}
  ]
}
